The record followed here is a protein production outcome set (Wang et al. 2014).

The data set is described as follows: label from the status in PepcDB records.
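Note: failed if final PepcDB status was selected cloned or expressed and not failed if soluble or beyond.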

Take “MIVEKVLIVDPIDGEFTGDVEIEEGKIVKVEKRECIPRGVLMPGFVDPHIHGVVGADTMNCDFSEMEEFLYSQGVTTFLATTVSTSLEKMKEILRKARDYILENPSTSLLGVHLEGPYISKEKKGAHSEKHIRPPSERELSEIDSPAKMLTFAPEIESSELLLRLVKRDIVLSAGHSIATFEEFMKFYKEGVKRITHFPNGLKPLHHREIGITGAGLLLDDVKLELICDGVHLSREMVKLVYKVKKANGIVLVTDSISAAGLKDGTTTLGDLVVKVKDGVPRLEDGTLAGSTLFFSQAVKNFRKFTGCSITELAKVSSYNSCVELGLDDRGRIAEGTRADLVLLDEDLNVVMTIKEGEVVFRSR”: the protein production result is listed as “not failed”.

In the case of “MIVNEPVPDTFEDTPAKDRDPDWFKRAVFYEVLVRSFQDSNGDGIGDLKGLTAKLDYLQWLGVDCLWLPPFFKSPLRDGGYDVSDYTAVLPEFGDLADFVEFVDAAHQRGMRVIIDFVMNHTSDQHPWFQESRRNPDGPYGDYYVWADDDKQFQDARIIFVDTEASNWTYDPVRKQYYWHRFFSHQPDLNYENPVVQEEMISALKFWLDLGIDGFRLDAVPYLYQEEGTNCENLPRTHDFLKRVRKEIDAQYPDTVVLAEANQWPEDVVDYFGDYAAGGDECHMAFHFPVMPRIFMAVRRESRYPVSEILAKTPAIPSGCQWGIFLRNHDELTLEMVTDEERDYMYAEYAKDPRMRANIGIRRRLAPLLDNDRNQIELFTALLLSLPGSPILYYGDEIGMGDNIWLGDRDAVRTPMQWTPDRNAGFSSSDPGRLFLPTIMDPVHGYQVTNVEASMASPSSLLHWTRRMIEIRKQNVAFGLGTYTELPSSNPAVLAFLREHEDDLVLCVHNFSRFAQPTELDLSAFDGRHPVELFGGVRFPAVGDLPYLLTLGGHGFYWFRLRKDAA”, the protein production result was “failed”.

As to “MIVRSKPNLISVLISLKGSIAKRIALRSLLVTLLASAIVLIETLHPAYFSKVNATPFTLLGLSLSIFMSFRNNACYDRWYEARKALGTVVTEVRSMIRETQVLEDTRARSAILRDLCGFAHALKARLRREDELSAAETWLSQLPPASTSNLPDSLLRQIARQCSDQAQAGRLSEWRYLLLANQLAAITGAQSTCERIKATPLPFPYTLLLHRTSYMFCILLPFAMAEPLGWLTPIFTAIVSYTFFGLDAIGDELEDPFGHDENDLPLSAIVRNIEREILEALGATELPPALEPVDYVLS”, the protein production result is listed as “failed”.

Take “MIVTLLGTGDSPGTPILNCHCRTCEDARRKGWERKRFSVMVQNNGKTVLIDTSPDLRRQLLDCGVEKVDAVIWTHCHFDHFGGFGEFYRVQNNVKVYSTPQIHEDIGHFMKFMSYKPVEVEAFENFTIAGMDFTLLPVNHPPVSAVGVKVEWKGYKVVVSGDTNVRIPEATLREMQNPDLLIVEALAPTGRFRKHMNAKEALELAKRLNAGKVVLTHLGHFFPPHHLAIKSYPVGEDYQSFSFGEGRLDEFFGDLEHHHHHH”: the protein production entry is “failed”.

As to “MIWLQLVVVLAAIFVGARLGGIGLGVMGGLGLGVLTFVFHLQPTSPPIDVLLMIAAVVTAAGVLQAAGGLDYLVSVAERILRSNPDRITFLGPLVTYVFTLFAGTGHVAYSVLPVISEVARETGVRPERPMSISVIASQQAITASPISAATVALLGMLSTGAAGAAFHIELIDILKVCIPSTLLGVLAAAFVANRMGKDLEEDPEYQDRVARGLAAPTGRQALAAADGGEPVRAAAPVTAKIAVGIFLAAALAVVLFGSFPGMRPQWTTASGVTKLGMPHAIEMVMLSAAALMLMVCRVDVSKVATGSVFGAGVQAVIAIFGIAWMGDTFFAGNMEVLGGSIKGMVTAAPWLFAAALFALSVLLYSQAATVRALMPLGIALGIPAPALMAMFPAVNGYFFIPNYPTIVAAINFDRTGTTRIGRWVLNHSFMVPGLISTVVAIATGLVIVRFMF”, the protein production result is “failed”.

As to “MIWSLLKIYVLMLCTISTVYNTFLLIVCVVGCCVQMEEIVFETKDAVDWSYRSEGVVNLVLAYSGSSPTFLGKVMRIKKLRNTRNENRDRSGSCLTTQEKLIWGEIKDLVSCQNKEIVDYLFVKHVMKPLLGHKYVTPGICLPVEKEFLESVKKIVTSQRHSWRANTLSVDTNRSFALLMDDLTIFSHGQVEDHKPCLTVEIKPKCGFLSSSSFIAEENVIKKSISRFEMYQVLKLRENQISQISEYDPLDLFSGSKDRIHKAIKALYSTPQNSLQVFLNGSLVFGGFRGGICKTTSKLELAFEHTLKDFFKTEDDCGLRANAFIELVAETVYASGALDQLLEVQKLDKYNIEGAIHAYYDLVDQPCKACQELESSKLSNQFGSMHSLPQDEKVNILKDFLISSTAIDCSVMISFRPIETGLSRSSSHGNIQLESTKQEFEYKIHFIDLDMRPLKRMEAYHESDKKITKTYQEMLKKKKGDQPRRF”, the protein production entry is “failed”.

Turning to “MIYDFCVIGGGIVGLATAMRLLEVYPGCSLVLMEKELSLAQHQTGHNSGVIHAGVYYAPGSFKAKLCARGAELTKSFCTEHSIPYEVCGKLVVASNKDSLARLGSLEERAKQNGLATERLDALELRRREPNVAGEGALFVKSSGIVDYGVVSNSMANVIIQSGGQILLGQTVVSIEEHGNHVNIASEGSSLSAKKLVVCAGLQSDRLATLAGLKLDCQIVPFRGEYYRLSSHLDYSVKHLIYPVPEVGLPFLGIHITRMINGGVTVGPN”, the protein production entry is reported as “failed”.

For the sequence “MIYDLHSHSTASDGMLTPTELILRAVEQKVDVLALTDHDTLAGIQEAKIAAESQPIQLISGVEISALWQNKNIHLTALDIDEHHPALIELLQHHAVLREQRAVEIGEKLAKAGIPNAYHGAKMLANGEVTRAHYARFLVQQDYVRNIEHAFKKYLGTGKIAYVKPQWSSISHVIDVTHQAGGVICLAHPLRYKMTARWLRALIEHFKQAGGDGIEVASCGQRPDQRQLIARWASEFDLYASVGSDFHYPTGWIELGKSLTLPTTCKPIWQLFTTQ”, the protein production entry is “failed”.

“MIYRFTIISDEVDDFVREIQIDPEATFFDLHEAILKAANYTNDQMTSFFICDDDWEKEKEITLEEMDNNPEMDSWIMKETRLNELIEDEKQKLLYVFDYMTERCFFIELSEIITGKEIKGAKCTKKSGEAPKQTVDFEEMAAGGGSLDLDENFYGDQDFDMEDFDAEGFDVNDGAAGGGSSYDEDKFLEHHHHHH”: the protein production entry is reported as “not failed”.

Take “MIYRKATEKDIAQLVELRKKQLEDEGIAPINNIDTELTHFFELSFKKNSFISWISEEDNEIIATSGVCFYKYPPSYLNPSGKVAYITNMYTKYEYRSRGIALALLKLVILEAKKRDYLFLRLHASDMGRPIYEEIGFKPFDDFMEMNLSLNRNGELEHHHHHH”: the protein production result is “not failed”.

As to “MIYWGMGMLVIAWLADGGISRLSDLIKEPLALGVLLFCGVWVLGLLWSDSAVIFQGKWRKYFILLTFIPLFSLLSRERLPWVTGALLCSYLGMVILGSYQWAMQEMQGISLLGMSYLHYSAALGIGVILAVFLGWETLSREKRWLSVLSWLIAILLLFLQFNQSARGILLATLMALLLMIVLRYRAEWRMLTGGLTAIMAMVILFATSSDIFHDRLQQAGTDLRSFQQGDYQTSVGYRLAMWDVGLHGIAEHPLLGHGSGMAKKYFDDSIITYKQGIYRNLPEFQETAHFHNELIEIGMHLGLLGILAFVFLLWCWFQIFRQNRMALLGSAIVCFICISGLTDTFLLYSGTPPFLLTVTAIAVCWRKYREDPDRIGQKYTSGERNGNQNPQMFLMSA”, the protein production result is listed as “failed”.

“MKAESSNESFIIGQRVHSLNDSRRVGTVKYVGDVEGYSGTWIGVDWDQDGDGKHNGSVNGVFYFNGRSQSSASFVRSQNLSRGITLLQALELRYRTISTKDEEDEMYVLSAGNRRVSIQLLGGDKIQDKLSRFEELTSASLSYLGVSSLGVSSDLGSILPNLKLLDLTGNLISDWEEIGALCEQLPALTTLNLSCNSLSSDIKSLPQLKNIRVLVLNNSGLSWTQVEILRRSLPGIEELHLMGNMISTITSTSSSDDQAFNSLRLLNLDDNCISDWSEVLKLSQLPCLEQLYLNKNKLSRIFQSVNGTESSEKGSDPFPSLSCLLLGANNIGDLASVDALNGFPQLVDIRLSENPISDPVRGGVPRFVLVARLTKVQVLNGSEVRAREKKDSEIRYVRMVMSKLNDKSGEIELLHPRFYELKKLHGIEDERASAENSGPKNIASGLISITLKCVGPSMGEKPHLTKKLPGSITVGKLKILSENFFKLKSIKPRLFLQEEGSPFPTALDDETATLLDVGICDGSTLLVDEES”: the protein production result is “failed”.

Turning to “MKAGLIMRHDVMSILHAFCMIAENHSFTRAAAQLHISTSALSQNMRQLEDELGVKLLNRTTRRVGLTEAGHAFLASIRPALAHIDEAMEHARQSRDIPGGTLRLTVPRTAATLLLQPNLAGFMRDYPDIRLDIDVNDGFVDLINERFDAGIRFGDAVQLDMNVVPLGDVLRPAIVASPAYLARFGTPLHPQELINHRCLCHRFTRESGLYRWEFVHGAQRLEITPEAALMVNDKALRLSAARDGAGLTYVFEQDVHEDLQDGRLCSVLEEWLPAADRFYLYYPGRAHMAPKLRVFIDYFCHKAILPSQQSHHR”, the protein production result is “failed”.

Regarding “MKALMVFMTTAENGSFSDAARKLGVSPAAISQSIARLEQELEVRLFNRTTRQLTLTEDGRRFYAQCRGPVNNLDSAINQLKASRDEPAGHLRVSMPNSFGRRFILPIMGEFCERYPKVRVFFGLDDHFSDLIEDGYDVGVRTGMMPDSRMVARNLAQMPLYVVASPEYWDQHGRPSSPEELSGYDCINFQFPTSGRLFKWEFDRKGERIPLEVNGTYTLNDMEAVAELARLGMGVAQLPGHEVVHLIRSGELEPVLTDMVSLERSIYICFPHRDHIAPRTRVFVDFVVEKLADHPDIMADLPGLDLSAKRSALQQSVGVL”, the protein production entry is given as “failed”.

As to “MKANFGYITPVPLNMELIDISLSKTQKRTPTVIHPQYNIVKIRMFYMRKVKHAGNEFASRLGTILTDFPRIEDIHPFYGDLINVLYDRDHYKLALGHVNAAKNGIEKVSKEFVKLLKFADSLYRCKQLKRAALGRMASAAKKLGKTLEYLEEVRMHMSRLPSIDLSGRTLLVCGFPNVGKSSFVRKISRADVEVQPYPFTTKSLYVGHFDYKYLQWQVIDTPGILDQPLENRNTIEMLSITALAHIKAVVLYFIDLSETCGYSVEEQMDLFNTLNPLLSSNMVIVLSKSDVLGLSGMEDKKAIMSFLEGKKYMEMSCEKEENIDAVKAMACDLLLDERFERKINSERLSEYINRITIVRPKELREKAESFICSREVTEIENEQERYLIPEEYRYDIVPEIVDGKNVADFFDPDIEKKLKEVEEEEEGLLPMYCKTYDVLSPEERALKEEVVAGIERRRIINRLREKKRLPDSWKHRSRNSGGDIAVHVRRDSKTQVAQPPRLPSKKKARFDDKHYYDRKPKHLYRGRK”, the protein production entry is recorded as “failed”.

Consider “MKAQYFFWILFLIGFYWMIYLYQDFLMDALIAGLLCVGFFQVKVFLDKRFFNVVSSFLCVLILASVLIVPLYFIVYKSSNIIFEINFEKFSALIKWLKGIITENLSHFPTIHDGASKFLENFSAASITGYLLKISSYVGRYSLKLITDALFILGLLFFFFYYGERFYRYFLGVLPLGMNQSKKIFEEVAGILRIVLLTSLITVILEGVAFGVMIVWFGHDGWSLGILYGLASLVPAVGGALIWIPIAIYELYHGNVNEAIFIALYSILLISVLIDSVIKPILIVFIKKRIFKTTLKINEMLIFFSMIAGISQFGFWGIIVGPTITAFFIALLRLYENYFIQNEQKACE”, for which the protein production result is “failed”.
